Source: US20230203461A1, “BETA-ETHERASES FOR LIGNIN DEPOLYMERISATION” (The University of York, priority 2020, published 2023)

Tests used:
[1] = test system: β-etherase; assay: Phenol oxidase assay (substrate specificity) with β-etherase; assay type: biochemical, P. putredinis NO1; conditions: 1 mM substrate, 50 mM Tris pH 8.5, room temperature
Description: Specificity was investigated by incubating 1 mM of each substrate of interest with the enzyme in 100 µL Tris pH 8.5 buffer at room temperature. Activity was determined by monitoring the change in Ultraviolet-Visible absorbance spectra (220 - 750 nm) of aliquots using a NanoDrop 8000 Microvolume UV-Vis spectrophotometer (Thermo Scientific). Scans were performed at regular intervals over 2 h.

[2] = test system: tyrosinase; conditions: literature statement; cited from earlier work
[3] = Fluorescence assay for β-etherase (4MU release from GGβ4MU); assay type: biochemical
Description: Enzyme activity was measured in 1 mL reaction containing 10 µL 4MU/GGβ4MU (synthetic fluorescent substrate 10 mM) and appropriate concentration of pure protein in 50 mM Tris-HCI, 100 mM NaCl, pH 8.5, 5 mM CuSO4. The reaction was incubated at 30° C. for 1 h. Formation of 4-methylumbelliferone (4MU) was monitored using an RF-1500 fluorometric analyzer. After 0 h and 1 h of incubation 100 µL of the reaction mixture was taken and added to 50 µL of 100 mM glycine-NaOH buffer (pH 10.0). One unit of the enzyme was defined as the amount that released 1 nmol of 4 MU/h from the substrate. Five replicate were taken for each sample, and control reactions of boiled enzyme and wheat straw treated with buffer only were also performed.
The effect of pH and temperature on enzyme activity was investigated by varying the pH of the reaction mixtures using 50 mM Tris-HCI buffer from pH 7.0 to 9.5, 50 mM glycine-NaOH buffer at pH range 9.0 to 10.5 and 50 mM Na2HPO4-NaOH buffer at pH range 10.5 to 12. The optimum temperature of enzyme activity was determined at various temperatures ranging from 20° C. to 70° C. Assays were performed as described in the previous section.

[4] = Release of products from rice straw (HPLC); assay type: biochemical; conditions: 16 h, pH 8.5, 30° C.
[5] = Saccharification after β-etherase pretreatment, sugarcane bagasse (HPAEC); assay type: biochemical; conditions: 16 h β-etherase pretreatment, then commercial cellulases
Description: (§1) For saccharification reactions, biomass pretreated with β-etherase was incubated with 1.2 µg/mL enzyme cocktail (4:1 Celluclast: novo 188 (Novozymes)) in 50 mM sodium acetate at pH 4.5 and incubated overnight at 37-40° C. with shaking. This was performed alongside a control reaction with buffer only. Solids were removed by centrifugation, and residual protein was precipitated with 80% ethanol. The supernatant, containing mono- and oligosaccharides, was dried with a centrifugal evaporator before samples were resuspended in ultra-pure water and filtered through a 0.2 µm polytetrafluoroethylene (PTFE) filter. Five replicates from each sample were investigated, and carbohydrate composition was analyzed by high-performance anion-exchange chromatography (HPAEC).
High-performance anion-exchange chromatography was used to analyze monosaccharide release after saccharification. Briefly, 5 µL of samples or standards were injected on a CarboPac PA20 3 × 150 mm analytical column via a CarboPac PA20 3×0 mm guard column using Chromeleon 6.8 Chromatography Data Systems software (Dionex). Sugars were separated at a flow rate of 0.4-0.5 mL min^-1 at a temperature of 25° C. as follows: after equilibration of the column with 100% H2O, samples were separated in a linear gradient of 100% H2O to 99%-1% of H2O-0.2 M NaOH for 5 min, then constant for 10 min, followed by a linear gradient to 47.5%-22.5%-30% of H2O-0.2 M NaOH-0.5 M NaOAc/0.1 M NaOH in 7 min and then kept constant for 15 min. After washing the column with 0.2 M NaOH for 8 min it was re-equilibrated with 100% H2O for 10 min before the injection of the next sample. Carbohydrates were detected by ICS-3000 PAD system with an electrochemical gold electrode, identified by comparison with retention times of external standards (arabinose, fucose, galactose, glucose, glucuronic acid, mannose, rhamnose, and xylose) and quantified through the integration of these known standards.

[6] = Saccharification after β-etherase pretreatment, wheat straw (HPAEC); assay type: biochemical; conditions: 16 h β-etherase pretreatment, then commercial cellulases
Description: as §1
(§2) High-performance anion-exchange chromatography was used to analyze monosaccharide release after saccharification. Briefly, 5 µL of samples or standards were injected on a CarboPac PA20 3 × 150 mm analytical column via a CarboPac PA20 3×0 mm guard column using Chromeleon 6.8 Chromatography Data Systems software (Dionex). […] Carbohydrates were detected by ICS-3000 PAD system with an electrochemical gold electrode, identified by comparison with retention times of external standards (arabinose, fucose, galactose, glucose, glucuronic acid, mannose, rhamnose, and xylose) and quantified through the integration of these known standards.

[7] = 2D HSQC NMR of enzyme lignins from treated wheat; conditions: HSQC volume-integrals, S + G + H = 100% basis; control nearly 12%
Description: Enzyme lignins, representing essentially all of the lignin in the sample, were prepared following ball-milling of the cell wall isolate as previously described.(75-77, 78)
2D NMR of enzyme lignins (EL) in 4:1 v/v DMSO-d6:pyridine-d5 were acquired on a Bruker Biospin (Billerica, MA) Avance 700 MHz spectrometer equipped with a 5-mm QCI ^1H/^31P/^13 C/^15 N QCI cryoprobe with inverse geometry (proton coils closest to the sample), as described previously.(76,77) Volume-integration of contours in HSQC plots used TopSpin 4.07 (Mac version) software, and no correction factors were used. The data represent volume-integrals only, and data are presented on an S + G + H = 100% basis (FIG. 17); pCA, and tricin T units are always terminal and are, therefore, likely overestimated.(77) Data assignments here were made by comparison with published data from other samples from our lab, including in the various tricin-related papers.(71-74, 79, 80)

[8] = Release of products from sugarcane bagasse (HPLC); assay type: biochemical; conditions: 16 h, pH 8.5, 30° C.
[9] = Saccharification after β-etherase pretreatment, rice straw (HPAEC); assay type: biochemical; conditions: 16 h β-etherase pretreatment, then commercial cellulases
Description: as §1, §2

[10] = Release of tricin and lignin units from wheat straw (HPLC); assay type: biochemical; conditions: 16 h, pH 8.5, 30° C.
Description: Wheat straw was ground to <1 mm using a cyclone mill (Retsch) and washed several times with 50 mM Tris pH 8 to remove residual surface sugars. […] Reactions were incubated overnight at 30° C. with shaking. Control reactions were performed using wheat straw incubated with boiled β-etherase or with buffer only. Tricin was extracted based upon Karambelkar.^70 Briefly, 1 mL of ethyl acetate was added to 100 µL of the reaction supernatant. This was homogenized before being centrifuged for 5 min at 13,000 rpm. The ethyl acetate layer was transferred into new tubes and evaporated using a centrifugal evaporator at 55° C. before being resuspended in 100 µL 50% H2O, 50% acetonitrile. This was analyzed with a Waters 2996 photodiode array detector Separations Module HPLC system, column used was C18-5 µM preparative column (4.6 × 250 mm, Waters, X-Bridge, Made in Ireland). The mobile phase was 0.1% acetic acid in water (A), and methanol (B) and a linear gradient was used; 95% A (5 min), 70% A (25 min), 0% A (30 min), 95% A (5 min), the flow rate was 1.0 mL/min. After identification through comparisons with authentic standards, based on retention time and UV spectrum, peaks were manually collected and the mass confirmed with mass spectroscopy.

[11] = purification step: Culture filrate
[12] = purification step: Q (anion-exchange)
[13] = purification step: S.E (size-exclusion)

## O=C(O)c1ccc(O)cc1 [4-Hydroxybenzoic acid]
[1]
  activity of the β-etherase against the substrate: showed activity
[2]
  tyrosinase inhibition: known to be tyrosinase inhibitors

## N[C@@H](Cc1ccc(O)c(O)c1)C(=O)O [L-Dopa, 3,4-dihydroxy-L-phenylalanine]
[1]
  activity of the β-etherase against the substrate: did not display activity

## N[C@@H](Cc1ccc(O)cc1)C(=O)O [L-tyrosine]
[1]
  activity of the β-etherase against the substrate: did not display activity

## O=c1c(O)c(-c2ccc(O)c(O)c2)oc2cc(O)cc(O)c12 [Quercetin]
[1]
  activity of the β-etherase against the substrate: showed activity
[2]
  tyrosinase inhibition: known to be tyrosinase inhibitors

## COc1cc(-c2cc(=O)c3c(O)cc(O)cc3o2)cc(OC)c1O [Tricin, 5,7-dihydroxy-2-(4-hydroxy-3,5-dimethoxyphenyl)-4H-chromen-4-one]
[2]
  type of tyrosinase inhibition: binds non-competitively

## COc1cc(C(=O)O)ccc1O [Vanillic acid]
[1]
  activity of the β-etherase against the substrate: showed activity
[2]
  tyrosinase inhibition: known to be tyrosinase inhibitors

## O=C(O)/C=C/c1ccc(O)cc1 [p-coumaric acid]
[2]
  type of tyrosinase inhibition: mixed-type inhibition effect

B1: β-etherase: copper-containing extracellular β-etherase of Parascedosporium putredinis NO1 (c2092), independent of NAD+ and glutathione, expressed recombinantly in E. coli (protein, listed as Parascedosporium putredinis)
chain: MPSAKRLLGLLLAATAAVGVAAQEPALTEDDFSIPEIEGGDALAQLAQLAADSSQETALRMAKRGLNSGCSPSQIKVRREWRTLTSAQRKQYIASVKCLQTKPSFFDPNIIPAAKSLFDDFVGVHVFQTGSIHLTATFLTWHRYFVYTYETKLREECGYTGPLPYWEWGLDVNNPNASPVFDGSDTSLSGNGAFFAHEGIQMVQPINGNILKLPPGNGGGCVTKGPFKDMKVHFGTIILPVYGQPILSGVENPIADNERCLKRDLNAGIAKRFTSFLNSTSVILKNNNIEMFQAHLQGDDRYVLNQLGVHGGGHYTIGGDPGGDPFISPGDPAFYLHHAQIDRIYWIWQMLDFKNRQGVHGTATLQNNPPSANVTVEDTIDLSPLAPPVKIKDLMNTVGGSPLCYIYL
[3]; GGβ4MU assay, 20° C. to 70° C. tested
  temperature of maximum activity: 60 °C
[3]; GGβ4MU assay, pH 7.0 to 12 tested
  pH of maximum activity: 10
[3]; [11]
  Activity (mU) (nmol/mg/hr): 7500 mU
  Specific (U/mg): 7.32 U/mg
[3]; [12]
  Activity (mU) (nmol/mg/hr): 2600 mU
  Specific (U/mg): 88 U/mg
[3]; [13]
  Activity (mU) (nmol/mg/hr): 1950 mU
  Specific (U/mg): 139 U/mg
[3]; recombinant purified protein from E. coli
  β-etherase activity (fluorescence released after incubation with GGβ4MU): confirmed
[4]
  product release from rice straw: little difference in product release
[5]
  increase in arabinose after saccharification vs untreated control: 23 fold
  increase in glucose after saccharification vs untreated control: 2 fold
  increase in xylose after saccharification vs untreated control: 5 fold
[6]
  increase in glucose release after saccharification: 1.2 fold
[7]
  relative tricin ether level in the lignin after treatment: about 8.5%
[8]
  p-coumaric acid release from sugarcane bagasse: significantly enriched
  tricin released from sugarcane bagasse compared to wheat straw: smaller amount of tricin was released
[9]
  improvement in saccharification: no improvement in saccharification
[10]
  p-coumaric acid, vanillin and p-hydroxybenzaldehyde in reaction supernatant of wheat straw: not enriched
  tricin in reaction supernatant of wheat straw vs buffer alone: significantly higher concentration of tricin
